Assay results: US20130115589A1 (UNIVERSITY OF TOKYO, published 2013)

Biological target: T1, wild-type glycoprotein B (gB) of HSV-1(F) (Herpes simplex virus 1 (HSV-1(F)), UniProt P06436 30-903)
T1 construct: whole, on cells; also called wild-type gB
Test: flow cytometry on infected 293T cells, PE-labeled anti-human IgG secondary antibody

B1: NMHC-IIArod-Ig (fusion protein of the C terminal fragment of NMHC-IIA and Ig) (Fc fusion)
chain: LAQAKENEKKLKSMEAEMIQLQEELAAAERAKRQAQQERDELADEIANSSGKGALALEEKRRLEARIAQLEEELEEEQGNTELINDRLKKANLQIDQINTDLNLERSHAQKNENARQQLERQNKELKVKLQEMEGTVKSKYKASITALEAKIAQLEEQLDNETKERQAACKQVRRTEKKLKDVLLQVDDERRNAEQYKDQADKASTRLKQLKRQLEEAEEEAQRANASRRKLQRELEDATETADAMNREVSSLKNKLRRGDLPFVVPRRMARKGAGDGSDEEVDGKADGAEAKPAE
notes: also called soluble C-terminal fragment of NMHC-IIA; soluble form of NMHC-IIA
  binding result: binds
